According to patent US20250277029A1 (Amgen, published 2025):

B1: LIBC528141-1 (antibody, V domains shown)
VH: QVQLQESGPGLVKPSQTLSLTCTVSGGSIRRGGDYWSWIRQHPGKGLEWIGHVYQTGSTKYNPRFKGRATISVNTYKNQFSLKLSSVTAADTAVYYCARDYDILTGYSYYYYGMDVWGQGTTVTVSS
VL: DIQLTQSPSTLSASVGDRVTITCRASQSISNYLNWYQQKPGKAPKLLIYAASSLHSGVPSRFSGSGSGTDFTLTISSLQPEDFASYYCQQYQSYPLTFGQGTKVEIKR
B2: LIBC527827-1 (antibody, V domains shown)
VH: QVQLQESGPGLVKPSQTLSLTCTVSGGSIRRGGDYWGWIRQHPGKGLEWIGHVYQSGQTAYNPKFENRATISVKTYKNQFSLKLSSVTAADTAVYYCARNYDTLTGHSYYYYGMDVWGQGTTVTVSS
VL: DIQMTQSPSTLSASVGDRVTITCRASQSISNYLNWYQQKPGKAPKLLIYAASSLHSGVPSRFSGSGSGTDFTLTISSLQPEDFASYYCQQYQSYPLTFGQGTKVEIKR
B3: LIBC527968-1 (antibody, V domains shown)
VH: QVQLQESGPGLVKPSQTLSLTCTVSGGSIRRGGDYWSWIRQHPGKGLEWIGHIYQSGSTKYNPSFKDRATISVNTYKNQFSLKLSSVTAADTAVYYCARDYDILTGYSYYYYGMDVWGQGTTVTVSS
VL: DIQLTQSPSTLSASVGDRVTITCRASQSISNYLNWYQQKPGKAPKLLIYAASSLHSGVPSRFSGSGSGTDFTLTISSLQPEDFASYYCQQYQSYPLTFGQGTKVEIKR
B4: LIBC527906-1 (antibody, V domains shown)
VH: QVQLQESGPGLVKPSQTLSLTCTVSGGSIRRGGDYWGWIRQHPGKGLEWIGHIYQTGSTNYNPNFKDRATISVDTYKNQFSLKLSSVTAADTAVYYCARDYDILTGYSYYYYGMDVWGQGTTVTVSS
VL: DIQLTQSPSTLSASVGDRVTITCRASQSISNYLNWYQQKPGKAPKLLIYAASSLHSGVPSRFSGSGSGTDFTLTISSLQPEDFASYYCQQYQSYPLTFGQGTKVEIKR
B5: LIBC528148-1 (antibody, V domains shown)
VH: QVQLQESGPGLVKPSQTLSLTCTVSGGSIRRGGDYWSWIRQHPGKGLEWIGHIYQSGQTKYNPKLKGRATISVDTYKNQFSLKLSSVTAADTAVYYCARDYDILTGYSYYYYGMDVWGQGTTVTVSS
VL: DIQLTQSPSTLSASVGDRVTITCRASQSISNYLNWYQQKPGKAPKLLIYAASSLHSGVPSRFSGSGSGTDFTLTISSLQPEDFASYYCQQYQSYPLTFGQGTKVEIKR
B6: LIBC527912-1 (antibody, V domains shown)
VH: QVQLQESGPGLVKPSQTLSLTCTVSGGSIRRGGDYWSWIRQHPGKGLEWIGYIYQTGQTKYNPNFEGRATISVNTYKNQFSLKLSSVTAADTAVYYCARDYDILTGYSYYYYGMDVWGQGTTVTVSS
VL: DIQLTQSPSSLSASVGDRVTITCRASQSISSYLNWYQQKPGKAPKLLIYAASSLRSGVPSRFSGSGSGTDFTLTISSLQPEDFATYYCQQYSNYPLTFGGGTRVEIKR
B7: LIBC528169-1 (antibody, V domains shown)
VH: QVQLQESGPGLVKPSQTLSLTCTVSGGSIRRGGDYWSWIRQHPGKGLEWIGHIYQSGSTKYNPSFEDRATISVNTYKNQFSLKLSSVTAADTAVYYCARDYDILTGYSYYYYGMDVWGQGTTVTVSS
VL: DIQLTQSPSTLSASVGDRVTITCRASQSISNYLNWYQQKPGKAPKLLIYAASSLHSGVPSRFSGSGSGTDFTLTISSLQPEDFASYYCQQYQSYPLTFGQGTKVEIKR
B8: LIBC529593-1 (Fab) (Fab, V domains shown)
VH: QVQLQESGPGLVKPSQTLSLTCTVSGGSIRRGGDYWSWIRQHPGKGLEWIGHIYYSGSTNYNPSLRSRVRISVDTSKNQFSLKLSSVTAADTAVYYCARDYDILTGYSYYYYGLDVWGQGTTVTVSS
VL: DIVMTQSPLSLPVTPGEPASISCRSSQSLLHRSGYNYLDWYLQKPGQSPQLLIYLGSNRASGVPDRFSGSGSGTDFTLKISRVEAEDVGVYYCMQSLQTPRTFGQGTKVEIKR
B9: LIBC674153-1 (Fab on yeast) (Fab, V domains shown)
VH: QVQLQESGPGLVKPSQTLSLTCTVSGGSIRRGGDYWSWIRQHPGKGLEWIGHVYYTGSTAYNPSFRGRVRISVNTYKNQFSLKLSSVTAADTAVYYCARGYDTSGYSYYYYGLDVWGQGTTVTVSS
VL: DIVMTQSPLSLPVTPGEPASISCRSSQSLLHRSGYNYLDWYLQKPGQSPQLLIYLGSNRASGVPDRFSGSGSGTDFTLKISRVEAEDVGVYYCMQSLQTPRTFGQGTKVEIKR
notes: Clone of the Fab-yeast libraries
B10: LIBC673982-1 (Fab on yeast) (Fab, V domains shown)
VH: QVQLQESGPGLVKPSQTLSLTCTVSGGSIRRGGDYWSWIRQHPGKGLEWIGHIYYTGSTTYNPSFRGRVRISVNTYKNQFSLKLSSVTAADTAVYYCARDYDISGYSYYYYGMDVWGQGTTVTVSS
VL: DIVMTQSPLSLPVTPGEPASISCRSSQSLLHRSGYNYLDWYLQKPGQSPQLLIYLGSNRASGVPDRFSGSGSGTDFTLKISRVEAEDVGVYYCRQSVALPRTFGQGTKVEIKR
notes: as for B9
B11: LIBC673948-1 (Fab on yeast) (Fab, V domains shown)
VH: QVQLQESGPGLVKPSQTLSLTCTVSGGSIRRGGDYWSWIRQHPGKGLEWIGHIYYTGSTKYNPSLKNRVRISVNTYKNQFSLKLSSVTAADTAVYYCARGYDVSGYSYYYYGLDVWGQGTTVTVSS
VL: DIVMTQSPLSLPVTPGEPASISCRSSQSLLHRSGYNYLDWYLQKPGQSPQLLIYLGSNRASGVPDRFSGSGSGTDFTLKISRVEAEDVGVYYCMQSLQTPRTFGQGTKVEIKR
notes: as for B9
B12: LIBC673965-1 (Fab on yeast) (Fab, V domains shown)
VH: QVQLQESGPGLVKPSQTLSLTCTVSGGSIRRGGDYWSWIRQHPGKGLEWIGHVYYTGQTAYNPSLRGRVRISVNTYKNQFSLKLSSVTAADTAVYYCARGYDTSGYSYYYYGLDVWGQGTTVTVSS
VL: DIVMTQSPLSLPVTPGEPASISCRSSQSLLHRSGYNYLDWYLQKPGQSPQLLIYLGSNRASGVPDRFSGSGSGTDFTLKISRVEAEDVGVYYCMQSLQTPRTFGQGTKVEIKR
notes: as for B9
B13: LIBC673972-1 (Fab on yeast) (Fab, V domains shown)
VH: QVQLQESGPGLVKPSQTLSLTCTVSGGSIRRGGDYWSWIRQHPGKGLEWIGHIYYTGQTAYNPNLRNRVRISVNTYKNQFSLKLSSVTAADTAVYYCARGYDASGYSYYYYGLDVWGQGTTVTVSS
VL: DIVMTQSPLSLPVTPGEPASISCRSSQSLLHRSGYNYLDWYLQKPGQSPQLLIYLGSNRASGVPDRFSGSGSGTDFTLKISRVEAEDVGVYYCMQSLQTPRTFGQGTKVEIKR
notes: as for B9

Experiments:
[1] = molecular target: human cannabinoid receptor 1 (huCB1), full length, expressed on cells (human, UniProt P21554 1-472); test: cell-based or functional assay
Chain of human cannabinoid receptor 1 (huCB1), full length, expressed on cells (P21554 whole entry, the tested form may be a part): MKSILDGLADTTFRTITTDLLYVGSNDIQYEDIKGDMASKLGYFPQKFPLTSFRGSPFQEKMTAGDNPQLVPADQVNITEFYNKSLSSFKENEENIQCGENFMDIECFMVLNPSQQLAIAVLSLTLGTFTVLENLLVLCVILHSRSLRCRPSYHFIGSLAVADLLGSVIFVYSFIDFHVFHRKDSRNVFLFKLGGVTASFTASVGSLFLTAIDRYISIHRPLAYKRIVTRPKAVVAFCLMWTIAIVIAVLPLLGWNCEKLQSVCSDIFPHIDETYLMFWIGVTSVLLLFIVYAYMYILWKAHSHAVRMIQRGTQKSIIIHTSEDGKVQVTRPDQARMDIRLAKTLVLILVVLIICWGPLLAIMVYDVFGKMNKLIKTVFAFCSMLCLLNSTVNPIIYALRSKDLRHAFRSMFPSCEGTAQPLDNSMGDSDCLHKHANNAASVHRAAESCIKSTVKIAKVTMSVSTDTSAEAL

[2] = molecular target: T1, GFP-fused huCB1-SMALP (human, UniProt P21554 1-472); test: flow cytometry, yeast-displayed Fab, 10 nM CB1 SMALP
T1 construct: Human CB1 fused to GFP in styrene maleic acid lipoparticles, made as in Luna et al. 2018; also called huCB1-GFP-SMALP; GFP-tagged huCB1-SMALP; not shown: GFP fused to huCB1
T1 sequence (P21554 whole entry, the tested form may be a part): as above

[3] = molecular target: T1, GFP-fused huCB1-SMALP; test: flow cytometry, yeast-displayed Fab, 5 nM CB1 SMALP
[4] = molecular target: T2, Empty ND; test: flow cytometry, yeast-displayed Fab, 50 nM Empty ND
T2 construct: It carries no receptor; the scaffold is its only protein; also called empty nanodisc

[5] = molecular target: T3, His-tagged huCB1-ND (human, UniProt P21554 99-414, limits assumed); test: flow cytometry, yeast-displayed Fab, 0.5 nM CB1 ND
T3 construct: The real construct may be truncated or engineered; also called CB1-nanodisc; not shown: histidine purification tag
T3 sequence (P21554 99-414 limits assumed): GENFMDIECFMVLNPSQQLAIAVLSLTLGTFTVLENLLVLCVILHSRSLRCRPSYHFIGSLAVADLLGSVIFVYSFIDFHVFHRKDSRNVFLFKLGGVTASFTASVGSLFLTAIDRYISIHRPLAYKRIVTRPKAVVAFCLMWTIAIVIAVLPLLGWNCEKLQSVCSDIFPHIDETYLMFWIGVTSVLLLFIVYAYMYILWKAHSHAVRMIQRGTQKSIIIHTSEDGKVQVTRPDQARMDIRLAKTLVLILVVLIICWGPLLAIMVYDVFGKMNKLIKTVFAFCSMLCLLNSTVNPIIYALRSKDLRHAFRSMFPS

Row | Binder | Mean IC50 (nM), cAMP antagonist assay [1] [nM] | Mean IC50, -fold vs Rimo [1] [fold vs Rimonabant] | n = 1 IC50 (nM), cAMP antagonist assay [1] [nM] | n = 1 IC50, -fold vs Rimo [1] [fold vs Rimonabant] | n = 2 IC50 (nM), cAMP antagonist assay [1] [nM] | n = 2 IC50, -fold vs Rimo [1] [fold vs Rimonabant] | relative binding fold change compared to LIBC523797-1(Fab) [2] [fold] | relative binding fold change compared to LIBC523797-1(Fab) [3] [fold] | relative binding fold change compared to LIBC523797-1(Fab) [4] [fold] | relative binding fold change compared to LIBC523797-1(Fab) [5] [fold]
1 | B1 | 4.05 | 1.35 | 6.26 | 1.49 | 1.84 | 1.03 |  |  |  | 
2 | B2 | 23.7 | 7.89 | 32 | 7.6 | 15.3 | 8.54 |  |  |  | 
3 | B3 | 4.03 | 1.34 | 6.1 | 1.45 | 1.95 | 1.09 |  |  |  | 
4 | B4 | 5.15 | 1.72 | 7.66 | 1.82 | 2.64 | 1.48 |  |  |  | 
5 | B5 | 5.95 |  | 9.1 |  |  |  |  |  |  | 
6 | B6 | 3.95 | 1.32 | 5.91 | 1.4 | 1.99 | 1.11 |  |  |  | 
7 | B7 | 7.81 | 2.6 | 12.3 | 2.92 | 3.31 | 1.85 |  |  |  | 
8 | B8 |  |  |  |  |  |  | 1.06 | 1.42 | 1.14 | 0.38
9 | B9 |  |  |  |  |  |  | 2.62 | 1.35 | 0.33 | 1.83
10 | B10 |  |  |  |  |  |  | 2.16 | 1.24 | 0.6 | 0.78
11 | B11 |  |  |  |  |  |  | 2.46 | 1.37 | 0.48 | 0.64
12 | B12 |  |  |  |  |  |  | 2.5 | 1.3 | 0.43 | 0.65
13 | B13 |  |  |  |  |  |  | 2.46 | 1.46 | 0.4 | 0.63
